Measured values reported in article PMC3033571 (2011).

B1: CaBP1 C-lobe C-lobe (protein)
chain: ADMIGVKELRDAFREFDTNGDGEISTSELREAMRKLLGHQVGHRDIEEIIRDVDLNGDGRVDFEEFVRMMSR
B2: CaBP1 16-167 (protein)
chain: ARLQRVLGLGSRREPRSLPAGGPAPRRTAPPPPGHASAGPAAMSSHIAKSESKTSLLKAAAAAASGGSRAPRHGPARDPGLPSRRLPGSCPATPQSSGDPSSRRPLCRPAPREEGARGSQRVLPQAHCRPREALPAAASRPSPSSPLPPARG
B3: CaBP1 N-lobe N-lobe (protein)
chain: not shown

Columns and labels:
[1] = molecular target: T1, CaV1.2 IQ domain IQ domain (Homo sapiens, UniProt Q13936, Ca2+); test: ITC, 15°C
T1 sequence (Q13936 1665-1685): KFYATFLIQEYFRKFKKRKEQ

[2] = molecular target: T1, CaV1.2 IQ domain IQ domain; test: ITC, 25°C
[3] = molecular target: T1, CaV1.2 IQ domain IQ domain; test: competition ITC

| Binder | Kd [1] | Kd [2] | Kd [3] |
| --- | --- | --- | --- |
| B1 | 10.5 nM | 15 nM |  |
| B2 |  |  | 0.288 nM |
| B3 | 1100 nM |  |  |
